36 variants from the Human Domainome abundance scans (Beltran et al. 2025) can be followed below.

± gives the uncertainty stated by the source.

B1: Peroxisome proliferator-activated receptor delta, residues 71 to 145; numbered along this chain, Q03181 (parent)
chain: NMECRVCGDKASGFHYGVHACEGCKGFFRRTIRMKLEYEKCERSCKIQKKNRNKCQYCRFQKCLALGMSHNAIRF

Variants of B1 are the subject of this series. Put plainly: abundance fitness (aPCA) (normalised: wild type 0, dead -1); higher = more abundant; growth selection in yeast, the domain comes from the species named. To be noted: Homo sapiens.
Regarding NMECRVCGDKASGFHYGVHACEGCKGFFRRTIGMKLEYEKCERSCKIQKKNRNKCQYCRFQKCLALGMSHNAIRF, the abundance fitness is -0.038 ± 0.039.
Next, NMECRVCGDKASGFHYGVHACEGCKGFFRRTIRMKLEYEKCERSCKIQKKNRNKCQYCRFQKCLALGMSHNAIRE: 0.088 ± 0.09.
Next, NMEPRVCGDKASGFHYGVHACEGCKGFFRRTIRMKLEYEKCERSCKIQKKNRNKCQYCRFQKCLALGMSHNAIRF: -1.07 ± 0.18; NMECRVCGDKASGFHEGVHACEGCKGFFRRTIRMKLEYEKCERSCKIQKKNRNKCQYCRFQKCLALGMSHNAIRF: -0.023 ± 0.047.
On to NMECRVCGDKAGGFHYGVHACEGCKGFFRRTIRMKLEYEKCERSCKIQKKNRNKCQYCRFQKCLALGMSHNAIRF, for which the abundance fitness is -0.274 ± 0.046.
In the case of NMECRVCGDKASGFHYGVHACEGCKGFFRRTIRMKLEYEKCERSCYIQKKNRNKCQYCRFQKCLALGMSHNAIRF it was -0.051 ± 0.07.
In the case of NMECRVCGDKASGFHYGVHACEGCKGFFRRTIRMKLEYEKCERSCKIQKKNRNKCQYCRFQKCLALGMSHNAIAF it was 0.079 ± 0.05; in that of NMECRVCGDKASGFHYGVHACEGCKGCFRRTIRMKLEYEKCERSCKIQKKNRNKCQYCRFQKCLALGMSHNAIRF, -0.719 ± 0.16.
Next, NMECRVCGDKASGFHYGVHACEGCKGFFRRCIRMKLEYEKCERSCKIQKKNRNKCQYCRFQKCLALGMSHNAIRF: -0.726 ± 0.14.
For the variant NMECRVCGDKASGFHYGVHACEGCKGFFRRMIRMKLEYEKCERSCKIQKKNRNKCQYCRFQKCLALGMSHNAIRF, the abundance fitness is -0.521 ± 0.13.
Take NMECRVCGDKASGFHYGVHACEGCKGFFRREIRMKLEYEKCERSCKIQKKNRNKCQYCRFQKCLALGMSHNAIRF: the abundance fitness was -0.89 ± 0.17.
Turning to NMECRNCGDKASGFHYGVHACEGCKGFFRRTIRMKLEYEKCERSCKIQKKNRNKCQYCRFQKCLALGMSHNAIRF, the abundance fitness is -0.624 ± 0.17.
Consider NMECRVCGDKASGFHYGVHACEGCKGFFRRTIRMKLEYEKFERSCKIQKKNRNKCQYCRFQKCLALGMSHNAIRF, for which the abundance fitness is -0.398 ± 0.3.
Next, NMECRVCGDKASGFHYGVHACEGCKGFFRRTIRMKLEYEKCERSCKIQKKNRNKCQYCRFGKCLALGMSHNAIRF: -0.639 ± 0.055; NMECRVCGDKASGFHYGVHACEGCKGFFRRTIRMKLEYEKCERSCKIQKKNRNKCQYCRFKKCLALGMSHNAIRF: -0.098 ± 0.056.
Turning to NMECRVCGDKASGFHYGVHACEGCKGFFRRTIRMKLEYEKCERSCKIQKKNRNKCQYCRFDKCLALGMSHNAIRF, the abundance fitness was -0.751 ± 0.22.
Next, NMECRVCGDKASGFHYGVHACEGCKGFFRRTIRMKLEYEKCERSCKIQKKNRNKCSYCRFQKCLALGMSHNAIRF: 0.008 ± 0.039.
In the case of NMECRVCDDKASGFHYGVHACEGCKGFFRRTIRMKLEYEKCERSCKIQKKNRNKCQYCRFQKCLALGMSHNAIRF it was -0.434 ± 0.1.
As for NMECRVCGDKASGFHYGVHACEGCKGFFRRTIRMKLEYEKCTRSCKIQKKNRNKCQYCRFQKCLALGMSHNAIRF, the abundance fitness was -0.117 ± 0.042.
With NMECRVCGDKASGFHYGVNACEGCKGFFRRTIRMKLEYEKCERSCKIQKKNRNKCQYCRFQKCLALGMSHNAIRF, the abundance fitness stood at 0.063 ± 0.065.
In the case of NMECRVCGDKASGFHYGEHACEGCKGFFRRTIRMKLEYEKCERSCKIQKKNRNKCQYCRFQKCLALGMSHNAIRF it was -0.398 ± 0.063; in that of NMECRVCGDKASGFHYGVHACEGCKGFFRMTIRMKLEYEKCERSCKIQKKNRNKCQYCRFQKCLALGMSHNAIRF, -0.176 ± 0.072.
Next, NMECRVCGDKASGFHYGVHACEGCKGFFRSTIRMKLEYEKCERSCKIQKKNRNKCQYCRFQKCLALGMSHNAIRF: -0.088 ± 0.044; NMECRVCGDKASGFHYGVHACEGCKGFFRVTIRMKLEYEKCERSCKIQKKNRNKCQYCRFQKCLALGMSHNAIRF: -0.188 ± 0.049.
NMECRVCGDKASGFHYGVHACEGCKGFFRETIRMKLEYEKCERSCKIQKKNRNKCQYCRFQKCLALGMSHNAIRF: the abundance fitness was determined as 0.074 ± 0.045.
In the case of NMECRVCGDKASGFHYGVHACEGCKGFFRRTIRMKLEYEKCERSCKIQKKNRNKCQYCRFQKCLALGMSHNYIRF, the abundance fitness was -0.156 ± 0.09.
As for NMECRVCGDKASGFHYGVHACEGCKGFFRRTIRMKLEYEKCERSCKIQKKNRNKCQYCRFQKCLALGMSHNCIRF, the abundance fitness was -0.126 ± 0.063.
Turning to NMECRVCGDKASGFHYGVHACEGCKGFFRRTIRMKLELEKCERSCKIQKKNRNKCQYCRFQKCLALGMSHNAIRF, the abundance fitness is -0.544 ± 0.077.
Next, NMECRVCGDQASGFHYGVHACEGCKGFFRRTIRMKLEYEKCERSCKIQKKNRNKCQYCRFQKCLALGMSHNAIRF: 0.08 ± 0.045.
Next, NMECRVCGDLASGFHYGVHACEGCKGFFRRTIRMKLEYEKCERSCKIQKKNRNKCQYCRFQKCLALGMSHNAIRF: -0.018 ± 0.039; NMICRVCGDKASGFHYGVHACEGCKGFFRRTIRMKLEYEKCERSCKIQKKNRNKCQYCRFQKCLALGMSHNAIRF: -0.044 ± 0.081.
In the case of NMFCRVCGDKASGFHYGVHACEGCKGFFRRTIRMKLEYEKCERSCKIQKKNRNKCQYCRFQKCLALGMSHNAIRF it was -0.086 ± 0.08; in that of NMECRVCGDKASGFHYGVHACEGCKGFFRRTIRMKLEYEKCERSCKIQKKNRNKLQYCRFQKCLALGMSHNAIRF, -0.98 ± 0.13; in that of NMECRVCGDKASGFHYGVHACEGCKGFFRRTIRMKLNYEKCERSCKIQKKNRNKCQYCRFQKCLALGMSHNAIRF, 0.014 ± 0.084.
Turning to NMECRVCGDKASGFHYGVHALEGCKGFFRRTIRMKLEYEKCERSCKIQKKNRNKCQYCRFQKCLALGMSHNAIRF, the abundance fitness was -0.942 ± 0.11.
On to NMECRVCGDKASGFHYGVHACEGCKGFFRRTIRMKLEYEKCERSCKIQKKNRNKCQYCRFQKCLALGMSHNAMRF, for which the abundance fitness was 0.137 ± 0.051.
